Results on six substances are retold here after patent US7157224B2, “Screening and use of agents which block or activate intein splicing utilizing natural or homologous exteins” (priority 1992, dated 2007).

The assay has as its target T1, Mtu DnaB intein (IVPS) (Mycobacterium tuberculosis, UniProt P9WMR3).
T1 sequence (P9WMR3 whole entry, looked up): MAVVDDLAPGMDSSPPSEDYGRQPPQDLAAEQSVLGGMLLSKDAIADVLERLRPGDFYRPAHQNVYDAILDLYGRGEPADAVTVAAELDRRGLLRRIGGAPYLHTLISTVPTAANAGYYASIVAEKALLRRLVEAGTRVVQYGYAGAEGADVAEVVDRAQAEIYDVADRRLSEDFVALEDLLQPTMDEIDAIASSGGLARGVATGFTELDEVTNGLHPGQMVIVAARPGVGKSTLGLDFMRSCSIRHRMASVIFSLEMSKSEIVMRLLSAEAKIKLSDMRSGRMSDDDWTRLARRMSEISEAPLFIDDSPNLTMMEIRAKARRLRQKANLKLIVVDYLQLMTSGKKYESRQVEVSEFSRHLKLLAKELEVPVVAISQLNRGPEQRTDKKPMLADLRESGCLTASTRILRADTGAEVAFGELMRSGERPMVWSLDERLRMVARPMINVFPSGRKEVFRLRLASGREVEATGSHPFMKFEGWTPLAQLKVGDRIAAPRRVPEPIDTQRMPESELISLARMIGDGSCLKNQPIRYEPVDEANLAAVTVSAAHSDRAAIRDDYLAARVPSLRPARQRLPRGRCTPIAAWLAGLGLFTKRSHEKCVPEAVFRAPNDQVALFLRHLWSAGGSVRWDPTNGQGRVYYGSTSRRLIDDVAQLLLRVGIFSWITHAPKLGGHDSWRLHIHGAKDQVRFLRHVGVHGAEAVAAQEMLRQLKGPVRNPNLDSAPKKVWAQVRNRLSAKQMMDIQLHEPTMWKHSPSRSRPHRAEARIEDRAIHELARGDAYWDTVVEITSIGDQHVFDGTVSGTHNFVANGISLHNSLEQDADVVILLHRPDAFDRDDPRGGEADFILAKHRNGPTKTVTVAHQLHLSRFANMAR
Format: cell-based. Particulars: E. coli, peptide in chicken α-spectrin loop on pEA825 (wild type Mtu dnaB), 37° C., 1 mM IPTG for 3 hours, crude cell extracts, anti-T7 tag immuno-staining.

Take PTRPTAPPLNFS [pEA817]: the “protein splicing of the Mtu DnaB intein (detection of Mtu DnaB protein splicing products)” value (from here on “protein splicing of the Mtu DnaB intein”) is listed as “selected for inhibition of splicing”. In the case of RPAPRPL [pEA815], the “protein splicing of the Mtu DnaB intein” value is “selected for inhibition of splicing”. To TVQSTKR [pEA814] belongs “selected for inhibition of splicing”; to HPNPHPTLSGQR [pEA818], “selected for inhibition of splicing”; to DLPMVEE [pEA818rev, reference compound], “occurred as efficiently as with the pMtu DnaB clone”.

PTARTYE [pEA816]: the “protein splicing of the Mtu DnaB intein” value is “selected for inhibition of splicing”.
